Results on 18 sequences are retold here after the supplement of paper PMC12764529.

± gives the half width of the 95% confidence interval.

The nature of data set [1]: folding stability dG unfold from trypsin proteolysis; higher = more stable. In short, it runs like this: (§1)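 Mini-proteins designed to be under 80 residues and free of cysteine were carried in a PA-tagged cDNA display construct and digested with trypsin and with chymotrypsin. Each protease was applied at 11 threefold-diluted concentrations, alongside a no-protease condition, before sequencing. K50 came from Bayesian fitting of the sequencing counts, and unfolding free energy was obtained by comparing it with a sequence-predicted unfolded-state K50 and a shared folded-state K50, for each protease separately or for both together. Designs were retained only if their AlphaFold2 dimer inter-PAE exceeded 15.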

A short description of data set [2]: folding stability dG unfold (combined trypsin and chymotrypsin); higher = more stable. The procedure, abridged: as §1
The nature of data set [3]: folding stability dG unfold from chymotrypsin proteolysis; higher = more stable. In short, it runs like this:
as §1

Consider “SAGMIATITITRPGTGSITLTVPVPVPSEEEARAYAEAVREALRAADPGPLEVSVEFERVPPVPPERLGSAG [r5_87_JUSTAS]”, for which the “folding stability dG unfold” value stood at 1.6 ± 0.038 kcal/mol in data set [1], 1.75 ± 0.1 kcal/mol in data set [2] and 1.85 ± 0.036 kcal/mol in data set [3].
As for “SAGMIEINNVTPNYVMIKIWNPDNGKKWEIPIQYERDNGKPYSKDKALEEIKDIAKEFYPDFDIEVEPVSAG [r5_293_TrROS]”, the figures for the “folding stability dG unfold” value in data set [1], in data set [2] and in data set [3] were 0.0269 ± 0.15 kcal/mol, 0.41 ± 0.25 kcal/mol and 0.727 ± 0.14 kcal/mol, respectively.
Regarding “SAGMIKIEETDGKLKVTITLKADDPEEITVEMIKEELEKLGLEVAEIKITPEPNEDGQYTVTAEIVVDVSAG [r5_922_TrMRF]”, the “folding stability dG unfold” value in data set [1] is 2.99 ± 0.39 kcal/mol; in data set [2], 3.08 ± 0.23 kcal/mol; in data set [3], 3.06 ± 0.16 kcal/mol.
As for “SAGMIKVEVVEKDEKTKEWKVVETKTIPVKPGEKPTVEELAKKLKEKGYEVRIEKTKDGTLKIYVIKKKSAG [r5_269_TrROS_Hall]”, the figures for the “folding stability dG unfold” value in data set [1], in data set [2] and in data set [3] were 3.33 ± 0.2 kcal/mol, 3.78 ± 0.16 kcal/mol and 4.08 ± 0.061 kcal/mol, respectively.
On the same counts, the results for “SAGMISPEEIAKRLKAGEPVEIYLPDPAEKEALLAELQKLLGLSEEELKEIFAKMKFTEIPATDPRLLASAG [r5_368_JUSTAS]” are 1.16 ± 0.045 kcal/mol, 1.67 ± 0.046 kcal/mol and 2.03 ± 0.058 kcal/mol.
The matching figures for “SAGMISSVSSEPSTNTTTATIPETGKTITYNPETGTLTVTPPTGNPSVIPVETPEEAERAMEEVIAELSSAG [r5_467_JUSTAS]”: 1.11 ± 0.041 kcal/mol, 0.816 ± 0.079 kcal/mol and 0.228 ± 0.038 kcal/mol.
Regarding “SAGMITISEEEARELGVPIGASEEEIKEALAARLREEGYKVEFPSVVKEKVDPKTGKVEYKIDINLKPLSAG [r5_23_JUSTAS]”, the “folding stability dG unfold” value was 1.3 ± 0.051 kcal/mol in data set [1], 0.807 ± 0.18 kcal/mol in data set [2] and -0.104 ± 0.48 kcal/mol in data set [3].
As for “SAGMKEIKIKDAKIEVKKKKDGKKVKRITLKDGKEIEIKEDGSIIIRNKKTGKYIKLPKNMTIEELLKKSAG [r5_348_TrROS_Hall]”, the “folding stability dG unfold” value worked out at 0.925 ± 0.09 kcal/mol in data set [1], 1.48 ± 0.098 kcal/mol in data set [2] and 1.74 ± 0.029 kcal/mol in data set [3].
With “SAGMKEVTVSKDELEEILKKLPPNKTYKVTLYNPNGPTYEFTVTVENDTIKINEGPPNKSENLKVTLVSSAG [r5_85_JUSTAS]”, the figures for the “folding stability dG unfold” value in data set [1], in data set [2] and in data set [3] were 1.53 ± 0.036 kcal/mol, 2 ± 0.051 kcal/mol and 2.32 ± 0.024 kcal/mol, respectively.
For “SAGMKIKIVKIEKEEDGTIRVELEITDPNGNKYRVEAEIDLKDPNKIKIKVINEDTGEEFEIELTIKKPSAG [r5_345_TrROS_Hall]”, the figures for the “folding stability dG unfold” value in data set [1], in data set [2] and in data set [3] were 3.6 ± 0.23 kcal/mol, 5.24 ± 0.35 kcal/mol and 5.19 ± 0.2 kcal/mol, respectively.
As for “SAGMKITISYDEAKGIATVTLYEERPVETPNGPVTLRRKVATVTIPYTSLEEAKKQAEEAAKALLEKLSSAG [r5_956_JUSTAS]”, the “folding stability dG unfold” value in data set [1] amounted to 5.11 ± 0.14 kcal/mol; in data set [2], 5.06 ± 0.084 kcal/mol; in data set [3], 5.036 ± 0.033 kcal/mol.
On the same counts, the results for “SAGMKITYKRPDGTPAEPIPEEEIKKLAEEKAKELYPNKPDATVTVTITIKTNNNEPLIITMTVTIKNESAG [r5_526_JUSTAS]” are 0.982 ± 0.054 kcal/mol, 1 ± 0.38 kcal/mol and 1.13 ± 0.18 kcal/mol.
The matching figures for “SAGMKKVIELTIPVTGPEEVEELVAKLEEEEPAVPVERRPDPRLGAVRVVVEKKFPDSIVYITLTAAASAGG [r19_262_JUSTAS]”: 0.784 ± 0.042 kcal/mol, 0.677 ± 0.065 kcal/mol and 0.496 ± 0.071 kcal/mol.
As for “SAGMKLELLLPAEEAVRLFGPDFDARDLARALASEGYVVESVEAEPFPNPEEGGLYLRVTFDVRPPDASAGG [r19_376_TrMRF]”, the “folding stability dG unfold” value in data set [1] was determined as 1.37 ± 0.018 kcal/mol; in data set [2], 1.38 ± 0.045 kcal/mol; in data set [3] it was 1.4 ± 0.061 kcal/mol.
On the same counts, the results for “SAGMKPGEKVKVTLTLTETRVEEVDGEKKVEKRTLTIEVTVEVSEEDREKALEEAEELARKLAEEGLIPSAG [r5_532_TrROS_Hall]” are 1.21 ± 0.15 kcal/mol, 1.31 ± 0.28 kcal/mol and 1.24 ± 0.07 kcal/mol.
For “SAGMKPNETLPNAIIRIENSKGKVKEFTLPNVVSIEEIDEKNGIITLTLPNNKKITLKVPKNAKITIEGSAG [r5_762_TrMRF]”, the “folding stability dG unfold” value stood at 3.04 ± 0.11 kcal/mol in data set [1], 3.37 ± 0.049 kcal/mol in data set [2] and 3.5 ± 0.049 kcal/mol in data set [3].
On the same counts, the results for “SAGMKTKTIEETITFTFPPGNPPDLEEIKEKLKSKGVKVLKVEMFEPPGDYYVVTAKVVKELEPSELLSSAG [r5_167_JUSTAS]” are 0.934 ± 0.072 kcal/mol, 1.84 ± 0.13 kcal/mol and 2.27 ± 0.039 kcal/mol.
For “SAGMKVILIIAPEEKIEEIFEEIKKIAEEHGLDLKLDKIEPLPEKGYLVIVTVKNPESDETTVILVLVPSAG [r5_41_TrMRF]”, the “folding stability dG unfold” value amounted to 2.96 ± 0.096 kcal/mol in data set [1], 3.55 ± 0.12 kcal/mol in data set [2] and 3.75 ± 0.077 kcal/mol in data set [3].
